Assay results: US20030199671A1, “Binding molecules for Fc-region polypeptides” (priority 2001, published 2003)
Read-outs that look alike come from different tables or passages of the source. Values belong to the substance of their own block, whether it stands above or below them. Non-standard residues stand in square brackets, D forms with d. Nle = CCCC[C@H](N)C(=O)O

Assays:
Format in all cases: binding
human IgG2 = biological target: T1, human IgG2 (Homo sapiens, UniProt P01859)
T1 construct: all human subtypes derived from myeloma patients; purchased Calbiochem 400122; host or cells: myeloma patients
T1 sequence (P01859 1-326 isoform P01859-1): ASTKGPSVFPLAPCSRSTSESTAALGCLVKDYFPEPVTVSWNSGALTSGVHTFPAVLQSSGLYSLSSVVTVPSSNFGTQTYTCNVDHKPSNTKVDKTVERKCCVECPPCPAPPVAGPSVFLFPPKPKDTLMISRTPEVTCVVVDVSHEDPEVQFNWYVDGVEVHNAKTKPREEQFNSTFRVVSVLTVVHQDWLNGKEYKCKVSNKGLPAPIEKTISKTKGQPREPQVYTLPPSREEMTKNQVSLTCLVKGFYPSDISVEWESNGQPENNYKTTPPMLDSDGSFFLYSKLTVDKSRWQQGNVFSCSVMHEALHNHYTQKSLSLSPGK
Procedure: (§1) In addition, the following targets, all unfractionated IgGs, were also evaluated with selected immobilized peptides for species specificity characterization in a similar format: human IgG, goat IgG, bovine IgG, and mouse IgG (Sigma, product nos. I4506, I5256, I5506, and I15381, respectively). In addition, 10 μl aliquots of hydrolyzed NHS-activated Sepharose 4 Fast Flow (Amersham Pharmacia Biotech, product no. 17-0906-01) and immobilized recombinant Protein A (RepliGen Corp., product no. IPA-400) were also assayed as negative and positive controls. IgG targets were diluted into 10 mM phosphate buffer containing 150 mM NaCl and 0.01% Tween 20, pH 7.2 (PBST) or 50 mM Tris buffer containing, 150 mM NaCl and 0.01% Tween-20, pH 7.5 (TBST). Batch (static) binding and elution studies were conducted in a 96-well assay filterplate (Millipore MultiScreen-HV, with 0.45 μm Durapore membrane, product no. MAHVN4510). The target was allowed to incubate with the resin for 1-1.5 hours with shaking at room temperature. Unbound target was collected by centrifugation of samples from the assay plate directly into a low-UV absorbing 96-well collection plate (Costar, product no. 3635 or Greiner, product no. 655801). The unbound target was then quantitated by reading the absorbance at 280 nm (normalized to 1 cm pathlength, 1.4 mg/ml A280 extinction coefficient) of the collection plate on a microplate spectrophotometer (Molecular Devices Corp., SPECTRAmax PLUS) against a buffer blank.
(§2) The percentage bound target was determined by subtracting the mass determined as unbound from the corresponding condition's control values (control non-filtered added directly to the collection plate and/or the negative control). The assay plate was washed (3×) with 200 μl of binding buffer by vacuum filtration followed by addition of 100 μl of various elution conditions (e.g.: 0.1 M sodium bicarbonate buffer, pH 8.5 and/or 0.1 M sodium citrate buffer, pH 4.0). After a 30-60 minute incubation with shaking at room temperature, the eluted target was collected by centrifugation of the assay plate into another collection plate and quantitated in a similar manner. Percent elution of total load was then determined to characterize elution recovery efficiency under various conditions. The assay plate was then washed (3×) with 200 μl of binding buffer by vacuum filtration followed by addition of a resin cleaning condition (e.g., 0.1M CAPS buffer (3-[Cyclohexylamino]-1-propane-sulfonic acid), pH 11.5, to regenerate the resin for re-use. Percentage mass balance determination was calculated to be 90-100% on average.

human IgG1 = biological target: T2, human IgG1 (Homo sapiens, UniProt P01857)
T2 construct: all human subtypes derived from myeloma patients; purchased Calbiochem 400120; host or cells: myeloma patients
T2 sequence (P01857 1-330 isoform P01857-1): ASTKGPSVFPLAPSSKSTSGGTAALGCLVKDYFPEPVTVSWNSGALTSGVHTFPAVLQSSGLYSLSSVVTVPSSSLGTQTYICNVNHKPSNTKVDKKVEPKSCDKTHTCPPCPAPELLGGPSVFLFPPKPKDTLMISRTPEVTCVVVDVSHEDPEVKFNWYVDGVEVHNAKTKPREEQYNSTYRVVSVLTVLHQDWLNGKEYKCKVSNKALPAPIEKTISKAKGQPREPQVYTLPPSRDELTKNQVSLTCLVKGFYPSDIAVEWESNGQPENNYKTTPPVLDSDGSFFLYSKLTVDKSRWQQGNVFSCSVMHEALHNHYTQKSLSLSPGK
Procedure: as §1, §2

human IgG = test system: human IgG
Procedure: as §1, §2

IgG4 = IgG4 (Homo sapiens, UniProt P01861); set-up: all human subtypes derived from myeloma patients; purchased Calbiochem 400126; host or cells: myeloma patients
Sequence of IgG4 (P01861 1-327 isoform P01861-1): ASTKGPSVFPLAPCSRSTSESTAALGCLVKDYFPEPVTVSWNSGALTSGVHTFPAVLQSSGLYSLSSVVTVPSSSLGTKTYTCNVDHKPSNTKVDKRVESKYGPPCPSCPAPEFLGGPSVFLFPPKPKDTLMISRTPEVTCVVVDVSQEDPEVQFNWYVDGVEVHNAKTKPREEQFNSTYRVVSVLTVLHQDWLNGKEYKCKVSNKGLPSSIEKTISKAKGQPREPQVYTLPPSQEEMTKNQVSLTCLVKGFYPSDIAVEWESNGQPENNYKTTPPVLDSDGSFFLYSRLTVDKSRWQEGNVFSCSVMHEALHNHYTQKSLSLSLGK
Procedure: as §1, §2

IgG3 = IgG3 (Homo sapiens, UniProt P01860); set-up: all human subtypes derived from myeloma patients; purchased Calbiochem 400124; host or cells: myeloma patients
Sequence of IgG3 (P01860 1-377 isoform P01860-1): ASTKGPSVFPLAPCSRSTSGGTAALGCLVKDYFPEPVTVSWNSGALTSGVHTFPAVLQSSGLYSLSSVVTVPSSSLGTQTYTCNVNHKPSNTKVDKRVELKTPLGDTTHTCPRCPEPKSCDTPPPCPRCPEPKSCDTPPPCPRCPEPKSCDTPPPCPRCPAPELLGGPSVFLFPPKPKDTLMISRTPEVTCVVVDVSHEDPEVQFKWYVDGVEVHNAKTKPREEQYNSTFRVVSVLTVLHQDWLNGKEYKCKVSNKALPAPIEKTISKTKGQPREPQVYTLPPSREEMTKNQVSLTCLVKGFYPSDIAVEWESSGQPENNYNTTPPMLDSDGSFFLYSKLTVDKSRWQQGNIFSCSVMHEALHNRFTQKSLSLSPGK
Procedure: as §1, §2

[1] = peptide immobilized on NHS activated sepharose 4 fast flow, target ligand density 2.0 μmole/ml, batch filterplate, hIgG2
[2] = peptide immobilized on NHS activated sepharose 4 fast flow, target ligand density 2.0 μmole/ml, batch filterplate, hIgG1
[3] = peptide immobilized on NHS activated sepharose 4 fast flow, target ligand density 2.0 μmole/ml, batch filterplate, hIgG
[4] = peptide immobilized on NHS activated sepharose 4 fast flow, target ligand density 2.0 μmole/ml, batch filterplate, hIgG4
[5] = peptide immobilized on NHS activated sepharose 4 fast flow, target ligand density 2.0 μmole/ml, batch filterplate, hIgG3
[6] = Table 20, average ligand density 1.9 μmole/ml

Substance: Ac-CVYTTWGELIWCDNHEPGPEGGGK-NH2 (not fully specified (bridges); printed as Ac-CVYTTWGELIWCDNHEPGPEGGGK-NH2; cysteine pairing not given here) [DX1069]
- Batch Binding (% Capture of Total Load) hIgG2 (human IgG2; [6]): 68%
- Batch Binding (% Capture of Total Load) hIgG1 (human IgG1; [6]): 77%
- Batch Binding (% Capture of Total Load) hIgG (human IgG; [6]): 74%
- Binding properties / profile relative to parent peptide (human IgG; batch filterplate, human IgG and subtypes): almost identical to those of DX249
- Batch Binding (% Capture of Total Load) hIgG4 (IgG4; [6]): 51%
- Batch Binding (% Capture of Total Load) hIgG3 (IgG3; [6]): 2%

Substance: Ac-DHMCVYTTWGELIWCDNHEPGPEGGGK-NH2 (not fully specified (bridges); printed as Ac-DHMCVYTTWGELIWCDNHEPGPEGGGK-NH2; cysteine pairing not given here) [DX1062]
- Batch Binding (% Capture of Total Load) hIgG2 (human IgG2; [6]): 63%
- Batch Binding (% Capture of Total Load) hIgG1 (human IgG1; [6]): 73%
- Batch Binding (% Capture of Total Load) hIgG (human IgG; [6]): 73%
- Batch Binding (% Capture of Total Load) hIgG4 (IgG4; [6]): 49%
- Batch Binding (% Capture of Total Load) hIgG3 (IgG3; [6]): 0%

Substance: Ac-ECSRDWSGALVWCAGHEPGPEGGGK-NH2 (not fully specified (bridges); printed as Ac-ECSRDWSGALVWCAGHEPGPEGGGK-NH2; cysteine pairing not given here) [DX1144]
- Batch Binding (% Capture of Total Load) hIgG2 (human IgG2; [1]): 84%
- Batch Binding (% Capture of Total Load) hIgG1 (human IgG1; [2]): 88%
- Batch Binding (% Capture of Total Load) hIgG (human IgG; [3]): 81%
- Batch Binding (% Capture of Total Load) hIgG4 (IgG4; [4]): 61%
- Batch Binding (% Capture of Total Load) hIgG3 (IgG3; [5]): 0%

Substance: Ac-EHMCVYTTWGELIWCDNHEPGPEGGGK-NH2 (not fully specified (bridges); printed as Ac-EHMCVYTTWGELIWCDNHEPGPEGGGK-NH2; cysteine pairing not given here) [DX1063]
- Batch Binding (% Capture of Total Load) hIgG2 (human IgG2; [6]): 63%
- Batch Binding (% Capture of Total Load) hIgG1 (human IgG1; [6]): 73%
- Batch Binding (% Capture of Total Load) hIgG (human IgG; [6]): 71%
- Batch Binding (% Capture of Total Load) hIgG4 (IgG4; [6]): 45%
- Batch Binding (% Capture of Total Load) hIgG3 (IgG3; [6]): 0%

Substance: Ac-ERACSRDWSGALVWCAGHEPGPEGGGK-NH2 (not fully specified (bridges); printed as Ac-ERACSRDWSGALVWCAGHEPGPEGGGK-NH2; cysteine pairing not given here) [DX1141]
- Batch Binding (% Capture of Total Load) hIgG2 (human IgG2; [1]): 9%
- Batch Binding (% Capture of Total Load) hIgG1 (human IgG1; [2]): 17%
- Batch Binding (% Capture of Total Load) hIgG (human IgG; [3]): 21%
- Batch Binding (% Capture of Total Load) hIgG4 (IgG4; [4]): 2%
- Batch Binding (% Capture of Total Load) hIgG3 (IgG3; [5]): 0%

Substance: Ac-GDWGECTVTSYGELIWCGGLEPGPEGGGK-NH2 (not fully specified (bridges); printed as Ac-GDWGECTVTSYGELIWCGGLEPGPEGGGK-NH2; cysteine pairing not given here) [DX1070]
- hIgG2 elution pH 3.0 (% of Total Load) (human IgG2; Table 13): 42%
- hIgG1 elution pH 3.0 (% of Total Load) (human IgG1; Table 13): 22%
- % IgG Capture - Batch Binding, Human IgG (human IgG; Table 14, average ligand density 1.8 μM/ml): 91%
- hIgG4 elution pH 3.0 (% of Total Load) (IgG4; Table 13): 14%

Substance: Ac-VCVYTTWGELIWCDNHEPGPEGGGK-NH2 (not fully specified (bridges); printed as Ac-VCVYTTWGELIWCDNHEPGPEGGGK-NH2; cysteine pairing not given here) [DX1067]
- Batch Binding (% Capture of Total Load) hIgG2 (human IgG2; [6]): 28%
- Batch Binding (% Capture of Total Load) hIgG1 (human IgG1; [6]): 33%
- Batch Binding (% Capture of Total Load) hIgG (human IgG; [6]): 44%
- Batch Binding (% Capture of Total Load) hIgG4 (IgG4; [6]): 25%
- Batch Binding (% Capture of Total Load) hIgG3 (IgG3; [6]): 0%

Substance: Ac-[Nle]CVYTTWGELIWCDNHEPGPEGGGK-NH2 (not fully specified (bridges); printed as Ac-[Nle]CVYTTWGELIWCDNHEPGPEGGGK-NH2; cysteine pairing not given here) [DX1068]
- Batch Binding (% Capture of Total Load) hIgG2 (human IgG2; [6]): 25%
- Batch Binding (% Capture of Total Load) hIgG1 (human IgG1; [6]): 33%
- Batch Binding (% Capture of Total Load) hIgG (human IgG; [6]): 36%
- Batch Binding (% Capture of Total Load) hIgG4 (IgG4; [6]): 21%
- Batch Binding (% Capture of Total Load) hIgG3 (IgG3; [6]): 0%

Results, then the substance that gave them:

- Batch Binding (% Capture of Total Load) hIgG2 (human IgG2; [1]): 55%
- Batch Binding (% Capture of Total Load) hIgG1 (human IgG1; [2]): 66%
- Batch Binding (% Capture of Total Load) hIgG (human IgG; [3]): 57%
- Batch Binding (% Capture of Total Load) hIgG4 (IgG4; [4]): 39%
- Batch Binding (% Capture of Total Load) hIgG3 (IgG3; [5]): 0%
Substance: Ac-ACSRDWSGALVWCAGHEPGPEGGGK-NH2 (not fully specified (bridges); printed as Ac-ACSRDWSGALVWCAGHEPGPEGGGK-NH2; cysteine pairing not given here) [DX1142]

- Batch Binding (% Capture of Total Load) hIgG2 (human IgG2; [6]): 63%
- Batch Binding (% Capture of Total Load) hIgG1 (human IgG1; [6]): 70%
- Batch Binding (% Capture of Total Load) hIgG (human IgG; [6]): 73%
- Batch Binding (% Capture of Total Load) hIgG4 (IgG4; [6]): 39%
- Batch Binding (% Capture of Total Load) hIgG3 (IgG3; [6]): 0%
Substance: Ac-ACVYTTWGELIWCDNHEPGPEGGGK-NH2 (not fully specified (bridges); printed as Ac-ACVYTTWGELIWCDNHEPGPEGGGK-NH2; cysteine pairing not given here) [DX1064]

- Batch Binding (% Capture of Total Load) hIgG2 (human IgG2; [1]): 83%
- Batch Binding (% Capture of Total Load) hIgG1 (human IgG1; [2]): 88%
- Batch Binding (% Capture of Total Load) hIgG (human IgG; [3]): 81%
- Batch Binding (% Capture of Total Load) hIgG4 (IgG4; [4]): 55%
- Batch Binding (% Capture of Total Load) hIgG3 (IgG3; [5]): 0%
Substance: Ac-TCSRDWSGALVWCAGHEPGPEGGGK-NH2 (not fully specified (bridges); printed as Ac-TCSRDWSGALVWCAGHEPGPEGGGK-NH2; cysteine pairing not given here) [DX1143]

- Batch Binding (% Capture of Total Load) hIgG2 (human IgG2; [1]): 63%
- Batch Binding (% Capture of Total Load) hIgG1 (human IgG1; [2]): 74%
- Batch Binding (% Capture of Total Load) hIgG (human IgG; [3]): 66%
- Batch Binding (% Capture of Total Load) hIgG4 (IgG4; [4]): 42%
- Batch Binding (% Capture of Total Load) hIgG3 (IgG3; [5]): 0%
Substance: Ac-VCSRDWSGALVWCAGHEPGPEGGGK-NH2 (not fully specified (bridges); printed as Ac-VCSRDWSGALVWCAGHEPGPEGGGK-NH2; cysteine pairing not given here) [DX1145]
